Measured values: patent CN110760489A, “一种川芎咖啡酸-o-甲基转移酶的突变体及其用途” (Southwest Jiaotong University, priority 2019, dated 2020)
Numbering of substitutions follows the chain as printed. Names and notes keep the numbering of the source.

B1: Ligusticum chuanxiong caffeic acid O-methyltransferase LcCOMT, wild type [野生型LcCOMT; 川芎咖啡酸-O-甲基转移酶] (Conioselinum anthriscoides) (protein)
chain: MNTELIPPTFLEDEEEEACMFAMQLSSASVLPMVLKSAIELNLLESIAKAGPGVYVSPSHLAAGLPSSQPDTPVMLDRILRLLASYSVLNCQLRDLPQGRVERLYGLAPVCKFLTKNSDGVSMAPLLLMNQDKILMESWYHLKDAVLDGGIPFNKAYGMTAFEYHGKDPRFNKVFNQGMSNHSTITMKKILQTYDGFGGLKTVVDVGGGTGATLNMIISKYPNLKGINFDLPHVVEDAPSYPGVEHVGGDMFVSVPKGDAIFMKWICHDWSDAHCLTFLKNCYKALPKDGKVILAECILPEAPDSKLTTKNVIHIDVIMLAHNPGGKERTEKDFEALGKEAGFKSFNKACCAYNTWVIEYYK
B2: Ligusticum chuanxiong caffeic acid O-methyltransferase LcCOMT variant LcCOMT-I318T (Ile318 to Thr), SEQ ID No.2 [LcCOMT-I318T突变体; 川芎咖啡酸-O-甲基转移酶] (Conioselinum … (protein)
chain: B1 chain with I318T

What was measured:
[1] = substrate: COC(=O)/C=C/c1ccc(O)c(O)c1; assay: 动力学参数值测定 (kinetic parameters, double-reciprocal method), wild-type LcCOMT; assay type: biochemical, Ligusticum chuanxiong; settings: other: substrate 咖啡酸甲酯 0.0715-0.25 mM, S-adenosylmethionine 1 mM, pH 7.0, 37℃, HPLC, double-reciprocal plot, 37.0 °C
[2] = substrate: COC(=O)/C=C/c1ccc(O)c(O)c1; assay: 动力学参数值测定 (kinetic parameters, double-reciprocal method), LcCOMT-I318T mutant; assay type: biochemical, Ligusticum chuanxiong; settings: other: substrate 咖啡酸甲酯 0.0715-0.25 mM, S-adenosylmethionine 1 mM, pH 7.0, 37℃, HPLC, double-reciprocal plot, 37.0 °C

Row | Protein | Km [1] [µM] | Vmax [1] | kcat [1] [S-1] | Km [2] [µM]
1 | B1 | 26.4 | 2.643*10^-8 M/S | 0.113 | 
2 | B2 |  |  |  | 19.7
